These results are taken from publication PMC3431625.

This experiment concerns the target Recombinant α2β1 integrin (UniProt P17301). Briefly: ELISA.

Chain of Recombinant α2β1 integrin (P17301 30-1181, chain 1 of 2): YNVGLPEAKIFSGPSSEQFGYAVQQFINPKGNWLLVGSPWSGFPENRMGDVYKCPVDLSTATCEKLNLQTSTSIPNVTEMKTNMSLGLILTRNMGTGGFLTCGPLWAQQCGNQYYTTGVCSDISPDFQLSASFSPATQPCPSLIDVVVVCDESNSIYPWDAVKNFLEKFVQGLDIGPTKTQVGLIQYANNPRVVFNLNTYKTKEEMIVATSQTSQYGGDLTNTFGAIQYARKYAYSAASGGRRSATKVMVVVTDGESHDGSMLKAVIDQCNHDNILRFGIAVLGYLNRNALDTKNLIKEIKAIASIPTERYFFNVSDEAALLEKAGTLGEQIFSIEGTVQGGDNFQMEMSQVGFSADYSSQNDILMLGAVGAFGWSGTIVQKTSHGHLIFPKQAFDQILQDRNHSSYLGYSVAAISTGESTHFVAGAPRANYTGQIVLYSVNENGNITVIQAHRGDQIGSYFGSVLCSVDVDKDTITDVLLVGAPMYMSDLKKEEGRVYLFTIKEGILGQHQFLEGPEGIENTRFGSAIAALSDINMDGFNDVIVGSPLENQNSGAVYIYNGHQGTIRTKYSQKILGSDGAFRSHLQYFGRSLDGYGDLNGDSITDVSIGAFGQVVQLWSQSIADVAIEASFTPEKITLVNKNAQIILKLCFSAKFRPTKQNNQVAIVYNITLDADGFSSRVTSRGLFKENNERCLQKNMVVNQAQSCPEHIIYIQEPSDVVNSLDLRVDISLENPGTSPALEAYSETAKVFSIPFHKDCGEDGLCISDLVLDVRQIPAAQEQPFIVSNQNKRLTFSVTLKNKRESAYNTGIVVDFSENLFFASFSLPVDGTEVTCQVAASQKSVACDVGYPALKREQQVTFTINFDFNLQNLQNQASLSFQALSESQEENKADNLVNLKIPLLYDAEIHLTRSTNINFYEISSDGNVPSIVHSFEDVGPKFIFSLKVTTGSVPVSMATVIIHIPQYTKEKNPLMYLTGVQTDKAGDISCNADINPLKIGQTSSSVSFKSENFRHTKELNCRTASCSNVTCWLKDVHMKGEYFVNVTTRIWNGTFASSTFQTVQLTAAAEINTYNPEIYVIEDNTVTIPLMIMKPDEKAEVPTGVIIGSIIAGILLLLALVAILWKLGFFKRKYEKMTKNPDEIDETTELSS
Chain of Recombinant α2β1 integrin (P05556 21-798, chain 2 of 2, further chain): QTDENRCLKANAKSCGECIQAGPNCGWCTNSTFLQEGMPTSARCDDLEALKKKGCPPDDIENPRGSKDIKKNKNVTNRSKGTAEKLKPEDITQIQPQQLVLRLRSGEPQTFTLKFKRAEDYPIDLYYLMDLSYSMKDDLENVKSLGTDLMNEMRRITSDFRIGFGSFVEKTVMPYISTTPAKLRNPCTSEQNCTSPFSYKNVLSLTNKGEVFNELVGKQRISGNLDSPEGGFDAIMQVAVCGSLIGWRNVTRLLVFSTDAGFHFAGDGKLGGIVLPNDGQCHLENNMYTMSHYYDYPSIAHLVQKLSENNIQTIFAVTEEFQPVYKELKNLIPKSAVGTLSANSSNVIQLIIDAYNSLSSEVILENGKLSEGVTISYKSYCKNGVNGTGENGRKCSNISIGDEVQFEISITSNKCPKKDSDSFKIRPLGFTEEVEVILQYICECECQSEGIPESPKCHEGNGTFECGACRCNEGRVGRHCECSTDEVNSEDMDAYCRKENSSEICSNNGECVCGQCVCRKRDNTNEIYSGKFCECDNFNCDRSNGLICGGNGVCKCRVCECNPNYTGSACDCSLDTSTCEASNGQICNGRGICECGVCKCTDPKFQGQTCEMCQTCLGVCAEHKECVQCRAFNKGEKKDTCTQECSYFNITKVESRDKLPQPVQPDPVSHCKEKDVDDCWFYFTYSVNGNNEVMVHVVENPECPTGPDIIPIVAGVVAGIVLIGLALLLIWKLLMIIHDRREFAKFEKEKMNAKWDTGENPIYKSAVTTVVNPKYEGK

On to “Biotinylated collagen type I (from UniProt P02453;P02465) (natural protein)”, for which the Kd (usually a measure of binding affinity in units of concentration) amounted to 1.5 nM.
